Laboratory results reported in the DeepSol protein solubility set.

assay: soluble on expression in E. coli; label from the status in PepcDB or PDB records

Row | Sequence | soluble on expression in E. coli
1 | MARPLKEGLDYFPLDVDADYDDKFQLIETLHGPTGFAIMIKLFMKIYSQNFYYKWTETEQILFAKRVNVDINTLKTVVNDCIKYDLFDNNLFSEFQILTSLGVQERYFTAIGRRKKQIVVLEYLLLDRPEVINLCPKIVFANINVVNDDINAEQEELMPALSAQTKGKESKVNESKAVVSEQEKLPEKIVKEKPTTTAYKFWEENVAITGLSEFDRELLKKLISLGGNELTVHAMKKAIELNRRRMKTVDTVLRGWLDNGVKTTAEADEQEKNWNGGAKKNARAEPAKQEIKISDQYNFGATRTD | not soluble
2 | MKWTVQQLRRFQHKEMAIDETVDVSDLKQIDTLIRDISPVHVQGKADVGSTKFTFHLTLSGTMVLPCSRTLVDVAYPFSIQTTETFFADGSGIVETDEDTHMVAGDTIDLNPIIRELILLEIPLQLIAEGPVAGGAPQHGEGWDVLSEEEWEKAMQEREKKVDPRLAGLAKFFEEKREE | not soluble
3 | MALSLYEKMLHKGMIIKNSNVYEKIKEIDTIIFDKTGTLTYGTPIVTQFIGDSLSLAYAASVEALSSHPIAKAIVKYAKEQGVKILEVKDFKEISGIGVRGKISDKIIEVKKAENNNDIAVYINGEPIASFNISDVPRPNLKDYLEKLKNEGLKIIILSGDKEDKVKELSKELNIQEYYSNLSPEDKVRIIEKLKQNGNKVLMIGDGVNDAAALALADVSVAMGNGVDISKNVADIILVSNDIGTLLGLIKNRKRLSNAIPSN | soluble
4 | MFIVLNAPVRGRYCAPMTQFASPVLHSLLDTDAYKLHMQQAVFHHYYDVHVAAEFRCRGDDLLGIYADAIREQIQAMQHLRLQDDEYQWLSALPFFKADYLNWLREFRFNPEQVTVSNDNGKLDIRLSGPWREVILWEVPLLAVISEMVHRYRSPQADVAQALDTLESKLVDFSALTAGLDMSRFHLMDFGTRRRFSREVQETIVKRLQQESWFVGTSNYDLARRLSLTPMGTQAHEWFQAHQQISPDLANSQRAALAAWLEEYPDQLGIALTDCITMDAFLRDFGVEFASRYQGLRHDSGDPVEWGEKAIAHYEKLGIDPQSKTLVFSDNLDLRKAVELYRHFSSRVQLSFGIGTRLTCDIPQVKPLNIVIKLVECNGKPVAKLSDSPGKTICHDKAFVRALRKAFDLPHIKKASMAGDPLEHHHHHH | not soluble
5 | LFNYKEGDSFFIRGPYGNGFDVSLYEGREIVVVAGGSALAPVRGIVEYFYNNKEKCEKFKLIVGFKSPKDILFADDLKRWSKKLDILVTVDGAEEGYSGNVGLVTKYIPELDMKDINNTSIVVVGPPMMMKFTVEEFLKRDLDEKNIWV | not soluble
6 | MGHHHHHHSHCSSCSTPLYDQGGPVEILPFLYLGSAYHASRKDMLDALGITALINVSANCPNHFEGHYQYKSIPVEDNHKADISSWFNEAIDFIDSIKNAGGRVFVHCQAGISRSATICLAYLMRTNRVKLDEAFEFVKQRRSIISPNFSFMGQLLQFESQVLAPHCSAEAGSPAMAVLDRGTSTTTVFNFPVSIPVHSTNSALSYLQSPITTSPSC | not soluble
7 | MHHKAKVIGMLKETIRSGDWKGEKHVPVIEYEREGDLVKVEVSVGKEIPHPNTPEHHIAWIELYFHPEGGQFPILVGRVEFTNHSDPLTEPRAVFFFKTSKKGKLYALSYCNIHGLWENEVQLE | soluble
8 | MPLVSLIIRCYNEEKHIGRLLSGVMQQQGIDYEIIIVDSGSTDATVSIAQRYPIQLISIDPQNFSFGRSLNLGCQQASGEYLVFASAHVYPVYQDWLKQLIAPLQTNPQIALSYGKQRGNNQTQFSEHQIFAQWFPDQAQIPQTTPFCNNANAAIRRDLWQKYPYNEDLTGLEDLDWAKRLMQAGYQIAYVPDAEIIHVHQETPQRVRNRYRREAIALKQIFPEQTFSLGDFVRLTVSNTLSDYYYAWQSQQLMTQLWAIPQFRLMQFWGTYQGYHQNNSLNQQLRQTFYYPRPINTITPNVPSKDALKINYAQSDTQLVPDPSPPSPHQLEHHHHHH | soluble
9 | MGSDKIHHHHHHMIILVGGEKGGSGKSCLAQNIAVFLTNEVQASVIMVDCDPQRTTSDWIQARNNNPKLPAINCVQLYGKIRNDLLSLEQHYDYVVVDCGGQDNLALRATMSVASYVLMPLRPKRRDLKTVSHMDDIVSTCLMINPKMKASFVITQCPSLPNQASRITEAKDVCRTYDINVLDAVNYCRNIYDDSEESGLSVFELEPQGKAADEMRSIACELLDITDAKQLIEQRNTASNVTPMRGNYGTSRSQEKRFVM | not soluble
